Test results taken from the Immune Epitope Database (IEDB).

Legend:
Experiment in all cases: IEDB peptide-MHC binding, purified MHC/competitive/radioactivity; filed as Kd, often an IC50 or EC50 that approximates it; ≥ and ≤ were set here for values at or beyond the usual limits of such assays
Conditions in all cases: source organism: Severe acute respiratory syndrome coronavirus 2
HLA-B*07:02 = target: HLA-B*07:02
HLA-A*02:01 = target: HLA-A*02:01
HLA-A*26:01 = target: HLA-A*26:01
HLA-B*44:02 = target: HLA-B*44:02
HLA-B*44:03 = target: HLA-B*44:03
HLA-B*18:01 = target: HLA-B*18:01
HLA-B*51:01 = target: HLA-B*51:01
HLA-B*15:01 = target: HLA-B*15:01
HLA-A*01:01 = target: HLA-A*01:01

Row | Sequence | Kd (HLA-B*07:02) | Kd (HLA-A*02:01) | Kd (HLA-A*26:01) | Kd (HLA-B*44:02) | Kd (HLA-B*44:03) | Kd (HLA-B*18:01) | Kd (HLA-B*51:01) | Kd (HLA-B*15:01) | Kd (HLA-A*01:01)
1 | APHGHVMVEL | 6.1 nM |  |  |  |  |  |  |  | 
2 | APRITFGGP | 59 nM | 893 nM |  |  |  |  |  |  | 
3 | DEFVVVTV | ≥ 52800 nM | 13000 nM | 9550 nM | 2800 nM | 1280 nM | 0.5 nM | 12800 nM | 2050 nM | 
4 | EEFEPSTQYEY |  |  | 18800 nM | 50 nM | 0.41 nM | 1.1 nM |  | 78 nM | 
5 | EIKESVQTF |  |  | 7.8 nM | ≥ 37200 nM |  |  |  | 4930 nM | 
6 | ELPDEFVVV |  | 460 nM | 6860 nM |  |  |  |  |  | 
7 | ELPDEFVVVTV |  | 1.6 nM | 72 nM |  |  | 1130 nM |  | ≥ 35100 nM | 
8 | FASEAARVV | 8550 nM | 495 nM | 734 nM |  |  | ≥ 49500 nM | 207 nM | 2550 nM | 
9 | FGDDTVIEV |  |  |  |  |  |  | ≥ 45700 nM | 2380 nM | 
10 | HADQLTPTW |  |  |  | 5260 nM | 1800 nM | 3350 nM |  | 13400 nM | 
11 | KNIDGYFKIY |  | 11800 nM |  |  |  |  |  | 1450 nM | 
12 | KRVDWTIEY |  |  |  |  |  |  | ≥ 22700 nM | 356 nM | 
13 | LEDKAFQL |  | 3890 nM |  | ≥ 35400 nM | 208 nM | 35 nM |  | 14700 nM | 
14 | NATNVVIKV |  |  | ≥ 43400 nM |  | 8110 nM |  | 536 nM |  | 
15 | SLEDKAFQL |  | 20 nM |  |  |  |  |  | 1580 nM | 
16 | STSAFVETV | 8860 nM | 26 nM | 12100 nM |  |  |  |  | 10400 nM | 12700 nM
17 | VATSRTLSY |  |  | 11800 nM |  |  |  |  | 267 nM | 18800 nM
18 | VGYLQPRTF |  |  |  |  |  | 707 nM |  | 777 nM | 
